Assay: yeast display, Sf9 membrane polyspecificity reagent, FACS + sequencing; frameworks hold sequencing errors
In short: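 Nanobodies from a synthetic yeast display library (Saccharomyces cerevisiae BJ5465), induced 36–48 hours with galactose, were stained 1 hour at 4 °C with 10% biotinylated, detergent-solubilized Sf9 membrane reagent, enriched on streptavidin microbeads, then FACS-sorted. Anti-HA (expression) and streptavidin (reagent binding) fluorescence set low and high (top ~1%) gates. Polyreactivity labels come from the gate of origin. Genes were colony-PCR amplified, MiSeq 2 × 250 sequenced and filtered by CDR length.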

Sequence | polyreactivity (PSR sort gate)
QLQLVESGGGLVQAGGSLRLSCAASGSIFKPYALRCYIQAPGKERELVAAITRSGGSTYYADSVKGRFTISRDNAKNTVYLQMNSLKPEDTAVYYCAAGNAPYYRFGSKKYGYWGQGTQVTVSS | high polyreactivity
QVQLVESGGGLVQAGGRLRLSCAASGSIFRYYDMGWYRQATGKEREFVAAISYRGGTTYYADSVKGRFTISRDNAKNTVYLQMNSLKPEDTAVYYCAKETYRSSSYDWYDYWGQGTQVTVSS | low polyreactivity
QVQLQESGGGLVQAGGSLRLSCAASGYISHADEMGWYRKAPGKEHELVASISNGGSTNYADSVKGRFTISRDNAKNTVYLQMNSLKSEDTAVYYCAAWTGQVDIHYYWGMGTQVTVSS | low polyreactivity
QVQLVESGGGLVQAGRSLRLSCAASGGLFQKYPMGWYRHAPGKERELVAAISGSGGRTYYADSVKGRFTISRDNAKNTVYLQMNTLKPEDTEVYYCAATLNRYGYDYWGQGTQVTVST | high polyreactivity
QVQLVESGGGLVQAGGSLRLSCAASGRTFPHYAMGWYRQAPGKERELVAAISSSGGSTYYADSVKGRFTISRDNAKNTVYLQMNSLKPEDNAVYYCAARYVDDGWKYDYWGQGTQVTVSS | low polyreactivity
QVQLVESGGGLVQAGGSLRLSCDASGLTFDYNAMGWYRQAPGKERELVAAITWSGGSTYYADSVKGRFTISRDNAKNTVYLQMNSLKPEDTAVYYCARDGVGRGYGYFTPLGYDYWGQGTQVTVSS | low polyreactivity
QVQLVESGGGLVQAGGSLRLSCAASGSTFFLNAMGWYRQAPGKESEFVAAISYTSTSTYYADSVKGRFTISRDNAKNTVYLQMNSLKPEDTAVYYCAVDAAGWYYTVETGDYAEDYWGQGTQVTVSS | low polyreactivity
QVQLVESGGGLVQAGGSLRLSCAASGRIFYSYAMGWYRQAPGKERELVARITRGSSTYYADSVKGRFTISRDNAKNTVYLQMNSLKPEDTAVYYCAAAVYFQVAFAYYYWGQGTQVTVSS | low polyreactivity
QVQLVESGGGLVQEGGSLRLSCAASGFIFSSNDMGWYRQPPGKERELVAVISRSGGRTYYADSVKGRFTISRDNAKNTVYLQMNSLKPEDTSVYYCNKKDRLGHSGRDYWGQGTQVTVSS | high polyreactivity
QVQLVESGGGLVQAGGSLRLSCAASGRIFGGYTMGWYRQAPGKERELVASINSGGSTAYADSVKGRFTISRDNAKNTVYLQMNSLKPEDTAVYYCAKRYAQTYSVSRYYYWGQGTQVTVSS | high polyreactivity
QVQLVESGGGLVQAGGSLRLSCAASGRIFRYYAMGWYRQAPGKERELVASITYSGGRTNYADSVKGRFTISRDNAKNTVYLQMNSLKPEDTAVYYCNSAYVYYYPHYRYAPTAVDYDYWGQGTQVTVSS | low polyreactivity
QVQLVESGGGVVQSRGSLRLTCAASGRIFLQYAMGWYRQAPWKERELVAAIEWSGGRTYYADSVKGRFTISRDNAKNTVYLQMNSLTPEDTAVYYCAARRISGSAVRGSRGYWGQGTQVTVSS | high polyreactivity
QVQLVESGGGLVQAGGSLRLSCAACGIPLRLNAIGWYRQAPGKERELVARITWRGSTYYADSVKGRFTISRDNAKNTVYLQMNSLKPEDTAVYYCAADNRSWQPPTILPPGASDYWGQGTQVTVSS | low polyreactivity
QVQLVESGGGLVQAGGSLRLSCAASGSTFTGYAMAWYRQAPGKERELVAAISSDGGSTYYADSVKGRFTMSRDNAKNTVYLQMNSLKPEDTAVYYCAALVYVSGYGYYYWGQGTQVTVSS | high polyreactivity
QVQLVESGGGLVQAGGSLRLSCAASGSSFSHYAMGWYRQAPGKVRELVAGISVRGGSTYYADSVKGRFTISRDNAKNTVDLQMNSLKPEDTAVYYCAIGYAKYYRTYYYWGQGTQVTVSS | high polyreactivity
QVQLVESGGGLVQAGGSLRLSCAASGRTFLINAMGWYRQAPGKERELVAAITQSGGSTYYADSVKGRFTISRDNAKNTVYLQMNSLKPEDTAVYYCNAQSWYIVPYDYWGQGTQVTVSS | low polyreactivity
QVQLVESGGGLVQAGGSLRLSCAASGRTFPYYAMGWYRQAPGKEREFVAGISRTGGSTYYADSVKGRFTISRDNAKNTVYLQMNSLKPEDTAVYYCNAPYIMTQQGGRRYDYWGQGTQVTVSS | high polyreactivity
QVQLEESGGGLVQAGGSLRLSCAASGGIFIFYAMGWYRQAPGKERELVAAISNVSSTNYADSVKGRFTISRDNAKNSVYLQMNSLKPEDTAVYYCNAVGVPSEYYSWGHGTQVTVSS | low polyreactivity
QVQLVESGGGLVQAGGSLRLSCAASGFTFRNNAMGWYRQAPGKERELVAAISKRGSSTYYADSVKGRFTISRDNAKNTVYLQMNSLKPEDTAVYYCAASWLGASGIRYDYWGQGTQVTVSS | high polyreactivity
QVQLVESGGGLVQAGGSLRLSCAASGRILTSNAMGWYRKAPGKERELVAAISWSGGSTYYADSVKGRFTISRENAKNSVYLHMNRLKPEDTAGYYCAAPFTTTFDYWGQGTQVTVSS | low polyreactivity
QVQLVESGGGLVQAGGSHRLSCAASGSTFYRYAMGWYRQAPGKEREFVAAISTRGGSTHYADSVKGRFTISRDNAKNTVYLQMNSLKPEDTAVYYCNARGYYSVPSNTGIRYYRFDYWGQGTQVTLSS | low polyreactivity
QVQLGESGGGLVQAVGSLRLSCAASGITFGENAMGWSRQADGKERELVAAITSGGSTDYADSVKGRFTISRDNAKNSVYLQMYCLKPEDTAVYYWAAEAVAYYGSSYGYWGQGTQVTVSS | low polyreactivity

Sequence | polyreactivity (PSR sort gate)
QVQLVESGAGLVQAGGSLRLSCAASGSIFYYYAMGWYRQAPGKEREFVAAIRESGGSTYYADSVKGRFTISRDNAKNTVYLQMNSLKPEDTAVYYCAVRRPRRNYNYPYDYWGLGTQVTVSS | low polyreactivity
QVQLVESGGGLVQAGGSLRLSCAASGSIFWPNPMGGYRQAPGKERELVAGSTFSGGSTYADSVKGRFTISRDNAKNTVYLQMNSLKPEDTAVYYCAVVYYRDPRMDFWRQGTQVTVSS | high polyreactivity
QVQLVESGGGLVQAGGSLRLSCAASGSTFPYYAMGWYRQAPGKEWDLVAAISASVGSTYYADSVKGRFTISRDNAKNTVYLQMNSLKPEDTAVYYCNRVRSSYVYVSRFDSWGQGNQVTVSS | high polyreactivity
QVQLVESGGGLVQAGGSLRLSCAASGSTFRVNAMGWYRQEPGKEREFVDAITWSTGSTYYADSVKGRFTISRDYAMNTVYLQMNSLKPEDTAVYYCAAREQTYSQRGKKLYYFWGQGTQVTVST | high polyreactivity
QVQLVESGGGLVQAGGSLRLSCAASGFTSSRNAMGWYLQAPGKEREWVATISSGGDTYYADSVKGRFTISRDNAKNTVYLQMNSLKPVDTAVYYCNKDPLYDWGYDYWGHGTQVTVSS | low polyreactivity
QVQLVESGGGLVQAGGSLRLSCASSGRTFGFNVMGWYRQATGKERELVAAISWSGGSTYYADSVKGRFTISRDNAKNTVYLQMNILKPEDTAVYYCNAQYSQVNGYDYWGQGTQVTVSS | low polyreactivity
QVQLVESGGGLVQAGGSLRLSCAASGRIFKRNAMGWYRQAPGKERELVAAISYSGGSTYYADSVKGRFTISRDNAKNTVYLQMNSLKPEDTAVYYCAVDRYPTGITKYDYWGQGTQVTVSS | high polyreactivity
QVQLVESGGGLVQAGGSLRLSCAASGSTFPSYAMGWYRQAPGKERELVAAITNGGSTTYADSVKGRFTISRDNAKNTVYLQMNSLKPDDTAVYYCAARYYYYYYYIRRDYWGQGTQVTVSS | low polyreactivity
QVQLVESGGGLVQAGGSLRLSCAASGTTIKYYAMGWSRQAPGKERELVARITSDGGSTFYADSVKGRFTISRDNAKNTVYLQMNSLKPEDTAVYYCNTAYAFRHWWFYPMDYWGQGTQVTVSS | high polyreactivity
QVQLVESGGGLVQAGGSLRLSCAAYGRTFARYAMGWYRQAPGKERELVAAISKSGVSTYYADSVKGRFTISRDHAKNTLYLQMNSLKPEDTAVYYCAAYVRQLQVVRGVSNYDSWGQGTQVTVSS | high polyreactivity
QVQLVESGGGLVQAGGSLRLSCAASGYIFGSYTMGWYRQAPGKERELVAGISRRGGGTYYADSVKGRFTMSRDNAKNNVYLQMNSLIPEDTAVYYCAAEVITIGLYRYGFWGQGTQVSVSS | high polyreactivity
QVQLVESGGGLDQAGGSLRLSCAASGYIFYRNAMGCYRQAPGKERELVAAITYTGGRTYYADSVKGRFTISRDNAKNTVYLQMNSLKPEDTAVYYCNADGRVFVVRPYYDYEYWGQGTQVTVSS | low polyreactivity
QVQLVESGGGLVQAGGSLRLSCAASGFTFDYNAMGWYRQAPGKERELVAVISSSGSRTYYADSVKGRFTISRDIAKITVYLQINSLNPEDTAVYYCAAARIGTRDYWGQGTQVSVSS | high polyreactivity
QVQLVESGGGLVQAGGSLRLSCAASGSTFYANAMGWYIQPPGKERELVAAISRSGGRTYYADSVKGRFTISRDTAKKTVYLQMNSLKTEDNSVYYCAKAYHHSEFDYWGQGTQVTVSS | high polyreactivity
QVQLVESGGGLVQAGGSLRLSCAPSGSTFRRNTMGWYRQAPGKARELVAGISSSGGSTYYADSVKGRFTISRDNAKNTVYLQMNSLKPEDTAVYYCAARFYVSYVGYNYWGQGSQVTVSS | high polyreactivity
QVQLVESGGGLVQAGGSLRLSCAASGRIFFVNAMGWYRQAPGKERELVAAISWSGGNTNYADSVKGRFTISRDNAKNTVYLQMNSLKPEDTAVYYCAADNSVGEYQRVDYDYWGQGTQVSVSS | low polyreactivity
QVHLVESGGGIVQAGGSLRLSCAASGRTFWNYAMRWYRQAPGKERELVAVIRFSDGSTYYADSVKGRFTISRDNAKNTVYVQMNSLKPEDTAVYYCAAKGQRRWGSGFDYWGQGTQVTVSS | low polyreactivity
QVQLVESGGGLVQAGGSLRLICAASGIIFAWYVMGWSRQAPGKERELVAAITQSGGSTFYADSVKGRFTISRDNAKNTVYLQLNSLKPEDTAVYYCNTDYFFNVPEMDSWGQGTQVTVYS | low polyreactivity
QVQLVESGGRLDQAGGSLRLSCAASGRIFSRNTMGWYRQAPGKERELVATITSAGSTSFADSVKGRFTISRDNAKNTVYLQMNSLKPENTAVYYCAKRGAYATGRRYDPYGYWGQGTQVTVSS | high polyreactivity
QVQLVESGGGLDQAGGSLRLISAASGYVMGWYRQAPEKEKELVATITRGTSTYYADSVKGRFTISRDNAKNTVYFQMNSLKPDDTAVYYCAARTTSGEWPPGNICTYLYDYWGQGTQVTVSS | low polyreactivity
QVQHVESGGGLVQAGCSLRLSCAASGSIFWRYAMGWSRQAHGKEREFVAAISGSGVRTSYADSVKGRFTISRDNAKNTVYLQMNSLIPEDTAVYYCAARVSYRYTSAAYEYWGQGTQVTVSS | high polyreactivity

From the nanobody polyreactivity screen of Harvey et al. (2022)
